# Where two headings read alike, the source gives them in different places.
# B1: ELF4 (expressed from a plasmid; tag not stated for the experiment) (natural protein)
# chain: not shown
# B2: ELF4 (endogenous, human cells) (natural protein)
# chain: not shown
# B3: ELF4 (endogenous, mouse cells) (natural protein)
# chain: not shown
# Legend:
# [1] = target: the molecule itself
# native gel or EMSA = target: the molecule itself; assay: native gel or EMSA
Protein,stoichiometry N [1],stoichiometry N (native gel or EMSA)
B1,2,
B2,,2
B3,,2
